The supplement of paper PMC10567573

B1: TEKT4 (parent)
chain: YARYHQAFADRDQSERQRHESQQL

Variants of: B1
Assay: protein stability index of a GFP-peptide fusion (GPS, HEK-293T) (PSI 1-6); higher = more stable
Settings: c terminus: a fixed tail appended
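Further: lentivirally expressed fusions sorted by FACS into six bins by GFP to DsRed ratio, PSI derived from sequencing read proportions per bin multiplied by bin number.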

Protein stability index of substitutions, site by site:
Q6: A 1.62; I 2.24; P 2.69; L 2.02; N 2.28; S 1.77; M 2.32; E 2.62
R16: H 2.28; G 2.48; W 2.07; Y 1.91
E20: C 2.01; W 1.51; Y 2.06; F 1.76; I 1.57; S 2.3; Q 1.53; L 1.64
Q23: Y 2.19; T 1.85; K 3; D 2.37; R 2.65; C 2.11; P 1.92; A 1.84
S14: I 2.16; T 2.37; Y 2.07; F 1.48; V 2.31; E 2.59; N 2.21; H 1.99
H19: K 2.63; I 2.53; L 1.65; F 1.48; N 2.08; W 1.94
D12: F 1.85; V 2.06; R 1.44; E 2.01; N 1.93; Y 1.86; M 1.7; W 2.99
Q13: L 2.49; T 1.79; K 1.91; D 2.35; E 1.74; R 1.88; N 2.22; I 2.35
R18: K 2.26; D 2.36; E 2.2; T 2.45; V 2.31
D10: G 2.37; L 2.29; C 2.36; Y 2.26; K 3.05
H5: C 2.39; V 2.87; D 4.57; W 3.19
A7: Y 1.69; C 2.88; G 3.18; R 3.5; E 3.72; V 2.06; L 3.3; N 3.07; T 3.48; S 3.2
A2: W 2.68; Y 3.58; L 2.09; I 2.5; T 1.67; N 2.85
R3: S 2.36; F 2.38; V 3.11; D 3; T 2.79; G 1.98; Q 2.57; E 2.06; K 2.3
E15: G 1.9; A 1.87; Q 1.97; F 2.76; M 1.31; H 1.75; L 2.18
R11: I 2.1; S 2.64
S21: H 1.99; I 2.41; D 1.78; P 2.39; A 2.01; R 2.46
Y1: S 4.87; A 3.9; D 5.23; L 4.55
L24: T 2.15; A 1.88; K 1.73; M 2.21; N 2.23; R 1.68
Y4: C 2.39; S 3.44; V 3.51; Q 3.85; R 3.81; W 1.6; T 2.8
A9: G 2.6; P 3.9; Y 2.89; I 3.12; T 3.36; L 3.49
Q17: I 2.34; H 1.9; P 2.11; V 2.31; G 1.87; C 2.07; D 2.21; T 2
Q22: Y 1.65; E 2.25; N 2.1; I 1.66; P 2.17; C 1.57; F 1.9; L 1.82; G 1.85; A 1.8; M 2.2; S 1.92
F8: S 3.86; H 4.58; D 4.63; A 4.75; Y 2.95; K 4.01; T 3.66; P 4.75; V 3.92; I 4.31; E 4.14; G 3.83
